The text below walks through data of patent publication US8143228B2, “Agents capable of downregulating an MSF-A dependent HIF-1α and use thereof in cancer treatment” (Medical Research Fund of Tel Aviv Sourasky Medical Center, priority 2004, dated 2012).

Holding throughout (type): cell-based
The test system of assay [1] is PC-3 cells. As to the kind of experiment: Cell proliferation assay with XTT reagent. As to conditions: PC-3-MSF-A vs PC-3-Neo cells, normoxia and hypoxia. The procedure:
FIG. 13 is a graph depicting the effect of MSF-A over-expression on cell proliferation. PC-3-Neo and PC-3-MSF-A cells were grown under normoxic and hypoxic conditions for the indicated time and then analyzed for proliferation using XTT assay. Proliferation was expressed as increase in % of the initial O.D. measured on the next day of seeding which was considered 100%. Growth media were not changed until the end of the experiment.
Cell proliferation assay with XTT reagent—For cell proliferation assay, PC-3-Neo and PC-3-MSF-A cells were seeded in 96 well-plates (1000 cells/well in 200 μLI) using a 3-bis-(2-methoxy-4-nitro-5 sulfenyl)-(2H)-tetrazolium-5-carboxanilide (XTT) kit (Biological Industries Ltd. Kibbutz Beit Haemek, Israel). Wells filled with media served as a control. On the next day, the cells were cultured either under normoxic or hypoxic conditions. XTT reagent was added at days 0, 2, 4 and 6 following the manufacturer's instructions. The absorbance of the samples was measured using a microplate reader at a wavelength of 450 nm using Elisa reader 680 (Bio-rad, Hercules, Calif.). All experiments were performed in triplicate.

Assay [2] relates to PC-3 cells. As to the kind of experiment: Soft agar foci assay. As to conditions: PC-3-MSF-A vs PC-3-Neo cells, 4 weeks, normoxia. The procedure:
FIGS. 14a-g are microscopic photographs (FIGS. 14a-f) and a graph depicting the effect of MSF-A over-expression on colony formation and growth (FIG. 14g). PC-3-Neo and PC-3-MSF-A cells were grown for 4 weeks in soft agar under normoxic conditions. Colonies were observed and counted. FIGS. 14a, c, and e—representative colonies from each plate seeded with PC-3-Neo cells; FIGS. 14b, d, and f—representative colonies from each plate seeded with PC-3-MSF-A cells; FIG. 14g—quantitative analysis of colony number from each cell type. Columns=means; bars=SD; n=3.
Soft Agar Foci assay—The assay tests the anchorage-independent growth of the cell in soft agar. Suspensions of PC-3-Neo or PC-3-MSF-A cells in 0.22% soft agar were poured on 35 mm-diameter plate (5000 cells/plate) pre-cast with 0.5% soft agar and were cultured for 4 weeks. Colonies (≧20 cells) were counted.

The subject of another assay is HIF-1 target genes. As to the kind of experiment: Semi-quantitative RT-PCR of HIF-1 target genes. The procedure: FIGS. 12a-f are RT-PCR analyses depicting HIF-1α mediated activation of various genes in cells transfected with the expression vector alone (Neo) or the MSF-A expression vector (MSF-A). Total RNA was isolated from PC-3-Neo and PC-3-MSF-A cells grown under normoxic (lanes 1 and 2) and hypoxic (lanes 3 and 4) conditions. Semi-quantitative RT-PCR analysis was performed using VEGF, Glut-1, ET-1, CA-IX, HIF-1α and β-actin primers (SEQ ID NOs:4200-4211 as described under General Materials and Experimental Methods). Lane 1—Neo, lane 2—MSF-A, lane 3—Neo, lane 4—MSF-A, lane 5—water (negative control).
Isolation and analysis of RNA—Total RNA was extracted from cells by using RNeasy Mini Kit (Qiagen Inc., Valencia, Calif.) according to the manufacturer's protocol. Total RNA from xenograft-derived tumors, which were frozen in liquid N2 immediately after dissection, was prepared using TRI REAGENT (Sigma-Aldrich Co., Saint Louis, Mo.) following the manufacturer's instructions. One μg total RNA was reverse transcribed into cDNA using Reverse-iT 1st Strand Synthesis Kit (ABgene, Epsom, United Kingdom) using anchored oligo dT as first strand primer. […] Semi-quantitative RT-PCR was performed using […] as an internal control to normalize gene expression for the PCR templates. […]

B1: MSF-A: myeloid/lymphoid leukemia septin-like fusion protein A (SEQ ID NO:3), over-expressed from the p3xFlag-MSF-A vector (protein, listed as Homo sapiens)
chain: MKKSYSGGTRTSSGRLRRLGDSSGPALKRSFEVEEVETPNSTPPRRVQTPLLRATVASSTQKFQDLGVKNSEPSARHVDSLSQRSPKASLRRVELSGPKAAEPVSRRTELSIDISSKQVENAGAIGPSRFGLKRAEVLGHKTPEPAPRRTEITIVKPQESAHRRMEPPASKVPEVPTAPATDAAPKRVEIQMPKPAEAPTAPSPAQTLENSEPAPVSQLQSRLEPKPQPPVAEATPRSQEATEAAPSCVGDMADTPRDAGLKQAPASRNEKAPVDFGYVGIDSILEQMRRKAMKQGFEFNIMVVGQSGLGKSTLINTLFKSKISRKSVQPTSEERIPKTIEIKSITHDIEEKGVRMKLTVIDTPGFGDHINNENCWQPIMKFINDQYEKYLQEEVNINRKKRIPDTRVHCCLYFIPATGHSLRPLDIEFMKRLSKVVNIVPVIAKADTLTLEERVHFKQRITADLLSNGIDVYPQKEFDEDSEDRLVNEKFREMIPFAVVGSDHEYQVNGKRILGRKTKWGTIEVENTTHCEFAYLRDLLIRTHMQNIKDITSSIHFEAYRVKRLNEGSSAMANGVEEKEPEAPEM
modifications: 3xFlag tag
B1: in the assay with PC-3 cells [1], the “proliferation rate (XTT)” value was “higher”. In addition, in the assay on PC-3 cells [2], the “colony formation in soft agar” value was “significantly more colonies”. Also, in the assay on HIF-1 target genes (PC-3-MSF-A and PC-3-Neo cells), the “HIF-1α mRNA level” value is given as “unchanged”. For the same molecule, the “VEGF mRNA levels” value in the assay on HIF-1 target genes (PC-3-MSF-A vs PC-3-Neo cells) was “significantly higher”.
